Measurements reported in patent US11814435B2, “Therapeutic antibodies and their uses” (PFIZER INC., priority 2015, dated 2023).

T1: hBCMA (human BCMA) (Homo sapiens, UniProt Q02223)
T1 sequence (Q02223 1-184): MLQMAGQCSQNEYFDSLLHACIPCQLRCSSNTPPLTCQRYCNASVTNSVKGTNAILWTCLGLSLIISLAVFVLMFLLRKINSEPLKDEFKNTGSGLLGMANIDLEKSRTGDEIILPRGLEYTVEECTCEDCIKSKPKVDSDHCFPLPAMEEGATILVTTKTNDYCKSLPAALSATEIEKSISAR


Assays:
Cyno BCMA = assay: Kinetics and affinity of cyno BCMA/human IgG interactions by SPR (Bio-Rad Proteon XPR36); type: binding, cynomolgus; details: 37° C.
hBCMA (human BCMA) = target: T1, hBCMA (human BCMA); assay: Kinetics and affinity of hBCMA/human IgG interactions by SPR (Bio-Rad Proteon XPR36); type: binding; details: human BCMA, 37° C.
Procedure, shortened: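 Anti-BCMA IgGs were amine-coupled to a GLC chip at 25° C. BCMA analyte was run by kinetic titration at 0.08, 0.4, 2, 10 and 50 nM, with 2-minute associations and 2-hour dissociation, at 37° C. or 25° C. in HBS-T+ (pH 7.4) plus 1 mg/mL BSA. Double-referenced sensorgrams were fit to 1:1 Langmuir with mass transport.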

CD3 = CD3 (Homo sapiens, UniProt P07766); assay: Biacore kinetics of anti-CD3 hIgG2dA bispecifics at 37° C.; type: binding
Chain of CD3 (P07766 23-126 limits assumed): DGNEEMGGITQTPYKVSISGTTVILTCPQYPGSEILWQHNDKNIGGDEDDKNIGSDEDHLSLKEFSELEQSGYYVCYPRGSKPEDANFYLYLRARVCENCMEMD
Chain of CD3 (P04234 22-105 partner limits assumed): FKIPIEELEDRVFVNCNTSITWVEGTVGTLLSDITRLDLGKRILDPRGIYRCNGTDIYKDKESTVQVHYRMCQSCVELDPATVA

Molecule	ka Cyno (Cyno BCMA) [M⁻¹ s⁻¹]	kd Cyno (Cyno BCMA) [s⁻¹]	ka Human (hBCMA (human BCMA)) [M⁻¹ s⁻¹]	kd Human (hBCMA (human BCMA)) [s⁻¹]	Kd (Cyno BCMA) [nM]	Kd (hBCMA (human BCMA)) [nM]	Kd (CD3) [nM]	ka (CD3) [M⁻¹ s⁻¹]	kd (CD3) [s⁻¹]
COMBO_Rd4_6 nM_C12: anti-BCMA antibody (antibody, V domains shown) VH: EVQLLESGGGLVQPGGSLRLSCAASGFTFSSYPMSWVRQAPGKGLEWVSAALGSGGSTYYADSVKGRFTISRDNSKNTLYLQMNSLRAEDTAVYYCARYWPMDSWGQGTLVTVS VL: EIVLTQSPGTLSLSPGERATLSCRASQSVSASYLAWYQQKPGQAPRLLMYDASIRATGIPDRFSGSGSGTDFTLTISRLEPEDFAVYYCQQYMSWPLTFGQGTKVEIK	3.29e+06	0.000486	1.38e+07	0.00027					
COMBO_Rd4_0.6 nM_C30: anti-BCMA antibody (antibody, V domains shown) VH: EVQLLESGGGLVQPGGSLRLSCAASGFTFSSYPMSWVRQAPGKGLEWVSAIGGSGGSTYYADSVKGRFTISRDNSKNTLYLQMNSLRAEDTAVYYCARYWPMDSWGQGTLVTVSS VL: EIVLTQSPGTLSLSPGERATLSCRASQSVSYMYLAWYQQKPGQAPRLLIYDASIRATGIPDRFSGSGSGTDFTLTISRLEPEDFAVYYCQQYKSWPLTFGQGTKVEIK	1.68e+06	0.000808	4.35e+06	0.000282					
COMBO_Rd4_0.6 nM_C14: anti-BCMA antibody (antibody, V domains shown) VH: EVQLLESGGGLVQPGGSLRLSCAASGFTFSSYPMSWVRQAPGKGLEWVSAIGGSGGSLPYADSVKGRFTISRDNSKNTLYLQMNSLRAEDTAVYYCARYWPMDIWGQGTLVTVSS VL: EIVLTQSPGTLSLSPGERATLSCRASQSVSALYLAWYQQKPGQAPRLLMYDASIRATGIPDRFSGSGSGTDFTLTISRLEPEDFAVYYCQQYYGWPLTFGQGTKVEIK	3.48e+06	0.000645	8.66e+06	0.000328					
COMBO_Rd4_6 nM_C07: anti-BCMA antibody (antibody, V domains shown) VH: EVQLLESGGGLVQPGGSLRLSCAASGFTFSSYPMSWVRQAPGKGLEWVSAIGGSGGSLPYADSVKGRFTISRDNSKNTLYLQMNSLRAEDTAVYYCARYWPMADWGQGTLVTVSS VL: EIVLTQSPGTLSLSPGERATLSCRASQPISSSYLAWYQQKPGQAPRLLMYDASIRATGIPDRFSGSGSGTDFTLTISRLEPEDFAVYYCQQYQGWPLTFGQGTKVEIK	3.94e+06	0.000934	1.05e+07	0.000371					
P5A2_VHVL: anti-BCMA antibody (antibody, V domains shown) VH: EVQLLESGGGLVQPGGSLRLSCAASGFTFSSYAMNWVRQAPGKGLEWVSAISDSGGSTYYADSVKGRFTISRDNSKNTLYLQMNSLRAEDTAVYYCARYWPMDIWGQGTLVTVSS VL: EIVLTQSPGTLSLSPGERATLSCRASQSVSSSYLAWYQQKPGQAPRLLMYDASIRATGIPDRFSGSGSGTDFTLTISRLEPEDFAVYYCQQYGSWPLTFGQGTKVEIK	1.61e+06	0.0164	6.96e+06	0.0387					
COMBO_Rd4_6 nM_C02: anti-BCMA antibody (antibody, V domains shown) VH: EVQLLESGGGLVQPGGSLRLSCAASGFTFSSYAMNWVRQAPGKGLEWVSAISDSGGFVYYADSVKGRFTISRDNSKNTLYLQMNSLRAEDTAVYYCARYWPMDSWGQGTLVTVSS VL: EIVLTQSPGTLSLSPGERATLSCRASQSVSSSYLAWYQQKPGQAPRLLMYDASIRATGIPDRFSGSGSGTDFTLTISRLEPEDFAVYYCQQYEFWPLTFGQGTKVEIK	795000	0.00136	1.05e+06	0.000443					
COMBO_Rd4_0.6 nM_C05: anti-BCMA antibody (antibody, V domains shown) VH: EVQLLESGGGLVQPGGSLRLSCAASGFTFSSYAMNWVRQAPGKGLEWVSAIGGSGGSTYYADSVKGRFTISRDNSKNTLYLQMNSLRAEDTAVYYCARYWPMSLWGQGTLVTVSS VL: EIVLTQSPGTLSLSPGERATLSCRASQSVSSTYLAWYQQKPGQAPRLLMYDASIRATGIPDRFSGSGSGTDFTLTISRLEPEDFAVYYCQQYMSWPLTFGQGTKVEIK	1.94e+06	0.00172	4.32e+06	0.000497					
COMBO_Rd4_0.6 nM_C17: anti-BCMA antibody (antibody, V domains shown) VH: EVQLLESGGGLVQPGGSLRLSCAASGFTFSSYPMSWVRQAPGKGLEWVSAIGGSGGSLPYADSVKGRFTISRDNSKNTLYLQMNSLRAEDTAVYYCARYWPMDIWGQGTLVTVSS VL: EIVLTQSPGTLSLSPGERATLSCRASQGISSTYLAWYQQKPGQAPRLLMYDASIRATGIPDRFSGSGSGTDFTLTISRLEPEDFAVYYCQQYAYWPLTFGQGTKVEIK	3.06e+06	0.00101	8.68e+06	0.000801					
COMBO_Rd4_6 nM_C22: anti-BCMA antibody (antibody, V domains shown) VH: EVQLLESGGGLVQPGGSLRLSCAASGFTFSSYAMNWVRQAPGKGLEWVSACLDSGGSTYYADSVKGRFTISRDNSKNTLYLQMNSLRAEDTAVYYCARYWPMDSWGQGTLVTVSS VL: EIVLTQSPGTLSLSPGERATLSCRASQSVSSSYLAWYQQKPGQAPRLLMYDASIRATGIPDRFSGSGSGTDFTLTISRLEPEDFAVYYCQQYQGWPLTFGQGTKVEIK	1.7e+06	0.00165	3.03e+06	0.000775					
COMBO_Rd4_0.6 nM_C11: anti-BCMA antibody (antibody, V domains shown) VH: EVQLLESGGGLVQPGGSLRLSCAASGFTFSSYPMSWVRQAPGKGLEWVSAALGSGGSTYYADSVKGRFTISRDNSKNTLYLQMNSLRAEDTAVYYCARYWPMSLWGQGTLVTVSS VL: EIVLTQSPGTLSLSPGERATLSCRASQSVSVRYLAWYQQKPGQAPRLLMYDASIRATGIPDRFSGSGSGTDFTLTISRLEPEDFAVYYCQQYGSWPITFGQGTKVEIK	2.2e+06	0.00423	5.11e+06	0.00106					
A02_Rd4_0.6 nM_C06: anti-BCMA antibody (antibody, V domains shown) VH: EVQLLESGGGLVQPGGSLRLSCAASGFTFSSYAMNWVRQAPGKGLEWVSAISDSGGSAWYADSVKGRFTISRDNSKNTLYLQMNSLRAEDTAVYYCARYWPMSLWGQGTLVTVSS VL: EIVLTQSPGTLSLSPGERATLSCRASQSVSVLYLAWYQQKPGQAPRLLMYDASIRATGIPDRFSGSGSGTDFTLTISRLEPEDFAVYYCQQYQRWPLTFGQGTKVEIK	1.81e+06	0.000105	3.49e+06	7.37e-05	0.058	0.021			
A02_Rd4_0.6 nM_C09: anti-BCMA antibody (antibody, V domains shown) VH: EVQLLESGGGLVQPGGSLRLSCAASGFTFSSYAMNWVRQAPGKGLEWVSAISDSGGSMWYADSVKGRFTISRDNSKNTLYLQMNSLRAEDTAVYYCARYWPMSLWGQGTLVTVSS VL: EIVLTQSPGTLSLSPGERATLSCRASQSVSSSYLAWYQQKPGQAPRLLMYDASIRATGIPDRFSGSGSGTDFTLTISRLEPEDFAVYYCQQYQSWPLTFGQGTKVEIK	2.13e+06	0.000174	5.5e+06	9.75e-05					
A02_Rd4_6 nM_C03: anti-BCMA antibody (antibody, V domains shown) VH: EVQLLESGGGLVQPGGSLRLSCAASGFTFSSYAMNWVRQAPGKGLEWVSAISDSGGSTYYADSVKGRFTISRDNSKNTLYLQMNSLRAEDTAVYYCARYWPMDIWGQGTLVTVSS VL: EIVLTQSPGTLSLSPGERATLSCRASQSVSNLYLAWYQQKPGQAPRLLMYDASIRATGIPDRFSGSGSGTDFTLTISRLEPEDFAVYYCQQYQGWPLTFGQGTKVEIK	1.17e+06	0.000185	1.69e+06	0.000126					
h2B4-1d_Ep: anti-EpCam/CD3 bispecific, human IgG2dA, anti-CD3 arm h2B4-1d (h2B4) (antibody, V domains shown, left off: another chain or arm of the molecule; a dimerising Fc or GST; small tags and cut ends) VH: EVQLVESGGGLVQPGGSLRLSCAASGFTFSDYYMTWVRQAPGKGLEWVAFIRNRARGYTSDHNASVKGRFTISRDNAKNSLYLQMNSLRAEDTAVYYCARDRPSYYVLDYWGQGTTVTVSS VL: DIVMTQSPDSLAVSLGERATINCTSSQSLFNVRSRKNYLAWYQQKPGQPPKLLISWASTRESGVPDRFSGSGSGTDFTLTISSLQAEDVAVYYCKQSYDLFTFGSGTKLEIK							40.4	586000	0.0237
